Assay [1] has as its target T1, VEGFR2 (KDR)-IgD 4-7 (human, UniProt P35968 328-753).
T1 construct: domain: IgD4-7; Expressed in E. coli; also called recombinant IgD4-7 of VEGFR2; VEGFR2-ED Ig D4-7
The assay is described as follows: Biacore; antibody as flow analyte, KDR-IgD4-7 as ligand. (In general: In SPR one partner is held on a chip, and binding of the other changes the refractive index at the surface.)

Assay [2] deals with T2, VEGFR2 (KDR)-IgD 6-7 (UniProt P35968 551-753).
T2 construct: domain: IgD6-7; GST-tagged recombinant protein from E. coli by the methods; also called recombinant IgD6-7 of VEGFR2; VEGFR2-ED Ig D6-7; not shown: GST tag from the pGEX-4T-1 vector
T2 sequence (P35968 551-753): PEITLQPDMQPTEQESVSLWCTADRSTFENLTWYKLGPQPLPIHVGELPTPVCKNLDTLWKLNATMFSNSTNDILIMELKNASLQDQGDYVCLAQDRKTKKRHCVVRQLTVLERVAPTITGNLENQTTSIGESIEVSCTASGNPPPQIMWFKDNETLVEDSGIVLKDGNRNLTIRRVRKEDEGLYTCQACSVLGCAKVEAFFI
The experiment in a line: Biacore; antibody as flow analyte, KDR-IgD6-7 as ligand.

For assay [3], the target named is T3, VEGFR3 IgD3-4 (UniProt P35916 219-415, limits assumed).
T3 construct: domain: IgD3-4; also called VEGFR3-ED Ig D3-4-myc; not shown: myc tag (pCMV6-XL6-myc vector)
T3 sequence (looked up): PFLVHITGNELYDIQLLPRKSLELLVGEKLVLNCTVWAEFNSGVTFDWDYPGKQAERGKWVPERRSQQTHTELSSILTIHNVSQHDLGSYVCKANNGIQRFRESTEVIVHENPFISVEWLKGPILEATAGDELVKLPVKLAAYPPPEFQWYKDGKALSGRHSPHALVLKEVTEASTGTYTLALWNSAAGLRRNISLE
The assay is described as follows: native gel electrophoresis and immunoblot. (Immunoblotting shows a protein as a band on a membrane.)

Assay [4] has as its target T4, VEGFR3 (Flt-4)-IgD 4-7 (UniProt P35916 331-764, limits assumed).
T4 construct: domain: IgD4-7; The methods describe no D4-7 construct of VEGFR3; tag and expression host are unknown; also called recombinant IgD4-7 of VEGFR3
T4 sequence (looked up): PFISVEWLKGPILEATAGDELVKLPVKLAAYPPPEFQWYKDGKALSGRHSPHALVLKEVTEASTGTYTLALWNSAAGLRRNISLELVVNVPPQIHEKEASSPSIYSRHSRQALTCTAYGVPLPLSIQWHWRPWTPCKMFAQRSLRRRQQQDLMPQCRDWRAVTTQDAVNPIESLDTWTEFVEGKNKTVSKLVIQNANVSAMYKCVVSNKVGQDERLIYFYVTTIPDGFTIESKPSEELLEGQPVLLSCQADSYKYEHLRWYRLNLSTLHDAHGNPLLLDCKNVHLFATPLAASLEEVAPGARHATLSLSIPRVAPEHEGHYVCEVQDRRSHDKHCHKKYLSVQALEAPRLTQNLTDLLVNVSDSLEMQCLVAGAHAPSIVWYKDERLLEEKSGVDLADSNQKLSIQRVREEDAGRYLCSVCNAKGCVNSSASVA
The assay is described as follows: Biacore; antibody as flow analyte, Flt 4-IgD4-7 as ligand.

The target of assay [5] is T5, R2-IgD4-5 (human, UniProt P35968).
T5 construct: recombinant fragment; also called immunoglobin-like domains 4-5 of VEGFR2
T5 sequence (P35968 328-548 limits assumed): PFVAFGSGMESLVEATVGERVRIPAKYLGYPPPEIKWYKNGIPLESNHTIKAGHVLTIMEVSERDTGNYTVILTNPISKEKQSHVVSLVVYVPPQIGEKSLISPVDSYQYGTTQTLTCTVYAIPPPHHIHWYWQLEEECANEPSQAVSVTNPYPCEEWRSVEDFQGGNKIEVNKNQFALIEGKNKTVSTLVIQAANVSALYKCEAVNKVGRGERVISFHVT
The experiment in a line: cell-based competitive ELISA: R2C9-11 absorbed with the soluble domains, then bound to fixed 293T/VEGFR2 cells, OD405. Here is the method:
The optimal concentration of R2C7-1 and R2C9-11 mAbs (200 μg/mL and 50 μg/mL, respectively) were absorbed with the designated doses of the individual immunoglobin-like domains of VEGFR2 (R2-IgDs) antigens. After, the fixed 293T/VEGFR2 cells were incubated with the absorbed antibodies at 37° C. for 30 min. The bound antibodies were probed with goat-anti-mouse IgG conjugated with HRP, visualized by addition of ABTS, and measured at OD₄₀₅ using the SpectraMax microplate reader. Data are represented as means±S.D. of the percentage of isotype control (CTL) in triplicate. The potential epitope locations of R2C7-1 (upper) and R2C9-11 (lower) on the VEGFR2 antigen are indicated by black lines spanning IgD6 and IgD7 in the schematics.
To define the recognition epitopes of R2C7-1 and R2C9-11 antibodies, cell-based competitive enzyme-linked immunosorbent assay (ELISA) was performed. HEK293T/VEGFR2 transfectants (5 X×10⁴/well) were coated and fixed on 96-well plates. The optimal concentrations, the highest concentration of the log phase, of R2C7-1 and R2C9-11 antibodies for binding to the cells, were determined using a standard ELISA procedure (data not shown). […]
The epitopes of R2C7-1 and R2C9-11 anti-VEGFR2 antibodies were determined by cell-based competitive ELISA. […]

This passage reports koff, binding result and kon results from US20210032353A1 (NATIONAL HEALTH RESEARCH INSTITUTES, published 2021).

T1 sequence (P35968 328-753 limits assumed): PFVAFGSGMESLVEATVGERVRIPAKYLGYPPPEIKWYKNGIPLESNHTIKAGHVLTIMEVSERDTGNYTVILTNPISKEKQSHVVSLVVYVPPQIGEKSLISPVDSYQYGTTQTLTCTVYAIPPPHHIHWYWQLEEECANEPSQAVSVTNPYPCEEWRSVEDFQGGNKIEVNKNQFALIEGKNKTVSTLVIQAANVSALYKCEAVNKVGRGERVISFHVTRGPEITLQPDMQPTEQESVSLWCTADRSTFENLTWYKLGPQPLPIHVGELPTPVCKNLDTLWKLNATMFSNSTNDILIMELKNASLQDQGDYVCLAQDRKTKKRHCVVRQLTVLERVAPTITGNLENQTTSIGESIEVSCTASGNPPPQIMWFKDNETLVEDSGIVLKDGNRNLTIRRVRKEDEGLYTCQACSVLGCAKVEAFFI

B1: R2C7-1 monoclonal antibody (antibody, V domains shown)
VH: EVQLQQSGPELVKPGASVKISCKASGYSFTDYFINWVIQRHGKSLEWVGRINPYNGGSFYNQKFKDKATLTVDKSSNIAHMELRSLASEDSAIYYCARSGGNGYDYWGQGTTLTVSS
VL: DIVMTQAAPSVPVIPGESVSISCRSSKSLLHSNGNTYLYWFLQRPGQSPQLLIYRMSNLASGVPDRFSGSGSGTAFTLRISRVEAEDVGVYYCMQHLEYPYTFGGGTKVEIK
notes: Mouse monoclonal antibody purified from hybridoma supernatant; An IgG2a isotype antibody served as its control; also called R2C7-1 mAb
As to B1, the koff – broadly, the first-order rate constant of dissociation – was found to be 0.0024 s⁻¹ in assay [1], 1.1e-05 s⁻¹ in assay [2] and 0.0049 s⁻¹ in assay [4]. The binding result in assay [3] was “no binding”. Moreover, the kon (usually a measure of how fast the partners come together) in assay [4] was 1.5e+06 M⁻¹ s⁻¹.

B2: R2C9-11 monoclonal antibody (antibody, V domains shown)
VH: QVQLQQPGAELVKPGASVKLSCKASGYTFTSYWMHWVKQRPGQGLEWIGEINPSNGRTNYNEKFKSKATLTVDKSSSTAYMQLSSLTSEDSAVYYCANLYFDVWGAGTTVTVSS
VL: DIVMTQSPSSLSVSAGEKVTMSCKSSQNLLNSGNQKYYLAWYQQKPGQPPKLLIYGASIRESGVPDRFIGSGSGTDFTLTISSVQAEDLAVYFCQSDHSYPYTFGGGTKLEIK
notes: Mouse monoclonal antibody purified from hybridoma supernatant; An IgG2a isotype antibody served as its control; also called R2C9-11 mAb
In assay [1], B2 gave an off-rate (koff) of 1.3e-05 s⁻¹. For the same molecule, the binding result in assay [5] is given as “no binding (tested: 20 (unit not printed on the sheet))”. In assay [4], this molecule displayed an off-rate (koff) of 0.0034 s⁻¹ and an on-rate (kon) of 3.2e+06 M⁻¹ s⁻¹.
